{"source": "the DeepSol protein solubility set"}
{"experiment": "soluble on expression in E. coli; label from the status in PepcDB or PDB records"}
{"sequence": "MSSVAVLTQESFAEHRSGLVPQQIKVATLNSEEESDPPTYKDAFPPLPEKAACLESAQEPAGAWSNKIRPIKASVITQVFHVPLEERKYKDMNQFGEGEQAKICLEIMQRTGAHLELSLAKDQGLSIMVSGKLDAVMKARKDIVARLQTQASATVPIPKEHHRFVIGKNGEKLQDLELKTATKIQIPRPDDPSNQIKITGTKEGIEKARHEVLLISAEQDKRAVERLEVEKAFHPFIAGPYNRLVGEIMQETGTRINIPPPSVNRTEIVFTGEKEQLAQAVARIKKIYEEKKKKTTTIAVEVKKSQHKYVIGPKGNSLQEILERTGVSVEIPPSDSISETVILRGEPEKLGQALTEVYAKVASSKIKLCSDNS", "soluble on expression in E. coli": "not soluble"}
{"sequence": "MKKVFDVWDVETAKRFLEVIRNETIYYPVLIALHTGMRAGEIVSLKWYDVNFEARIISVVKSVRNNRGLKTSDVKTKTSKRSVYINDVLFSELKNLYETIKPKPDDFVCPRLPTGNLTVGYLSKRFKLLVKRYNFPVIRFHDLRHTFATLMLSLGVNTKIVAEILGHSDIKLTADTYSHVLPTMQESAMKEFSKLWKLEHHHHHH", "soluble on expression in E. coli": "not soluble"}
{"sequence": "MSADHDHDHDHDHDHKPAPMVEEVSDFEILEMAVRELAIEKGLFSAEDHRVWKDYVHTLGPLPAARLVAKAWLDPEYKKLCIEDGVEASKAVGVNWVTSPPTQFGTPSDYCNLRVLADSPTLKHVVVCTLCSCYPRPILGQSPEWYRSPNYRRRLVRWPRQVLAEFGLQLPSEVQIRVADSNQKTRYIVMPVRPEGTDGWTEDQLAEIVTRDCLIGVAVPKPGITVNAKRPVLKANRPVHHDH", "soluble on expression in E. coli": "soluble"}
{"sequence": "ASGRRAPRTGLLELRCGAGSGAGGERWQRVLLSLAEDALTVSPADGEPGPEPEPAQLNGAAEPGAAPPQLPEALLLQRRRVTVRKADAGGLGISIKGGRENKMPILISKIFKGLAADQTEALFVGDAILSVNGEDLSSATHDEAVQALKKTGKEVVLEVKYMKEVSPYFKNSAGGTSVGWDSPPASPLQRQPSSPGPQPRNLSEAKHVSLKMAYVSRRCTPTDPEPRYLEICAADGQDAVFLRAKDEASARSWAGAIQAQIGT", "soluble on expression in E. coli": "soluble"}
{"sequence": "MGSDKIHHHHHHLKILKFQIKDFRNLKKIEYQPSPGLNIFYGENAQGKTNILEALYYLATGNSFRSNKEKTLISYESSSLQVQARYNHQERIIDSSITYGLDGKVFRINKKRASYNHTDRLRIILFSPDDLYLVKGAPYKRRFFLDFLLGQISNEYLFKLDNYRKILKKRNLLLKKEETNSRSFAIINDIFMDLAAQLLISRLNLINVLDEAIQEIYPQINNDGGQLKIRYALSFPVDSGKINLDILKDSLKKQVESETEKEKKRKTTLLGPHLDDMHIYLNEQMARLFASQGQQRNIVICLKLAEIMTFRKIKGFFPIFLLDEVLAELDDSRSNKLLKYLAQSPFQSFLTSVKLEKFEVMDASIFLVKDGCLLGKE", "soluble on expression in E. coli": "not soluble"}
{"sequence": "PHDFPHFDKERYARTTRKVIARMNQELASHEQIKGVLMIKEPWSIENGVLTPTLKIKRHVLEQKYHELGHNWPKDELVLWEEDL", "soluble on expression in E. coli": "not soluble"}
{"sequence": "MSLSSPTADVEKLRRIIEVARGDRRADFVVKNAQIVDLVNEEIFEGDIAVAEGFIAGIGSYSGVEECEASNLVAVPGLIDAHTHIEMSMLTVSEFARLVVPRGTTGVVADPHEIANVLGKDGVMLMLEEARSTPLRFYCMVPSCVPSSPLETSGARIGVEEIRELLEEEEVLGLAEMMNFPGVVSADREVLEKIVLAGIVDGHAPGLRGKKLNAYIAAGASSDHETTSFEEGKEKLRLGMWVMIREGSAARNLVALKGLTGNRHTMLVTDGDRSVKDIIEEGYLDHVFRRAIEEGIDEIKALQMLTLNPAEYFGINAGLIAPSRLADIVLLKNLRKFEVRDVFVGGRRPEFKRFNHPEWAKKTVKARKITPESIQLKTGRVRVIEVYDGEIVTGEAIEEVQGVDVERDILKAVVVERHIRSGRVGKAYVRGFGLKRGAIAQSIAHDAHNIVCVGVDDGSICAAVNRVIELQGGIVVADAEVRAELPLPIAGIMSDERAERVLERLSEIEEEVRKLGCRLKSPVITLSFIALPVIPKLKLTDLGLVDVEAFRVVDLQADEGHHHHHH", "soluble on expression in E. coli": "not soluble"}
{"sequence": "MGKLAADQLTLSYDSTVIIDGVDLKIEEGKITALIGANGCGKSTILKSLARLMAPKSGTVLLEGKDIHRQPSKEVAKKLAILPQSPQAPEGLTVEELCYFGRHPHKKLLSKHTQEDHDMVEWALEATGMIELKDRTLDALSGGQRQRAWISMALAQGTDLLLLDEPTTYLDISHQIEVLELLKKLNRDHGRTVVMVLHDLNQAAQYADYLISVLDGKIYNAGTPEDVFTQPFFREVFGLECCIMRSPIDQKPMCLPTGLCPKLRAK", "soluble on expression in E. coli": "not soluble"}
{"sequence": "TLLHPLLMRNGDSRPLHKPTTPLPSLDLLTPPPSEVEPVDTFALEQMARLVEARLADFRIKADVVNYSPGPVITRFELNLAPGVKAARISNLSRDLARSLSTVAVRVVEVIPGKPYVGLELPNKKRQTVYLREVLDNAKFRDNPSPLTVVLGKDIAGEPVVADLAKMPHLLVAGTTGSGASVGVNAMILSMLYKAQPEDVRFIMIDPKMLELSVYEGIPHLLTEVVTDMKDAANALRWCVNEMERRYKLMSALGVRNLAGYNEKIAEADRMMRPIPDPYWKPGDSMDAQHPVLKKEPYIVVLVDEFADLMMTVGKKVEELIARLAQKARAAGIHLVLATQRPSVDVITGLIKANIPTRIAFTVSSKIDSRTILDQAGAESLLGMGDMLYSGPNSTLPVRVHGAFVRDQEVHAVVQDWKARGRPQYVDGITSDSESEGGAGGFDGAEELDPLFDQAVQFVTEKRKASISGVQRQFRIGYNRAARIIEQMEAQGIVSEQGHNGNREVLAPPPFD", "soluble on expression in E. coli": "soluble"}
{"sequence": "MAHHHHHHMKLLSSVGRLSVVAGGLSLIPYTFIYDVDGGERCVMFNRFGGVSENTYGEGSHFYIPWFQTPYIYDIKMKPKVINTTTGTRDLQIVTLSLRLLFRPHTKQLPYLHSTLGPDYDERVLPSIGNEVLKAVVAKYNAESLLTQRDKISKEIRESITARAKHFNILLDDVAITHLSYGKEFAKAIEDKQVAQQESERVKFIVAKTEQEKIAAVIKAQGEAEAAKLISSAVKEYGNSLLEIRKLEAAKEIAENLSKSKNVTYFPASFNILLNPKNL", "soluble on expression in E. coli": "not soluble"}
{"sequence": "MAWTFDEKSPIYLQIAYRVKLKIASKELSMGQQLLPVREFAQEAGVNPNTVQRAFQELEKEGLVYSARTSGRFVTEDEKLIDQKRHEIAQTLMKNFVTEMTAIGFSSPEIKTIITDYIEQTGKDL", "soluble on expression in E. coli": "not soluble"}
{"sequence": "MKIAHISDLHVKCEWYEDRLGNNLVKYLNAQKPDLLIITGDLTDYGYYAEYKRAYSFLELIEVEKRVVVPGNHDARNEGYELFEEFFGTRMPYYEDEYMVIIGMDSSLPDREEGHIGRKGYKFLRETLKDKGDKLKIVALHHHVVPIPATGSDLAILTDAGNLMKVVDELGVELVLTGHKHKAWVWKLNETYYVTAGTATTRRLKAKDYPSFYMLYLEDEKNIRMEKVNTETLKVEEVYTLNFEEGKER", "soluble on expression in E. coli": "not soluble"}
{"sequence": "MESGHRFDAQTLHSFIQAVFRQMGSEEQEAKLVADHLIAANLAGHDSHGIGMIPSYVRSWSQGHLQINHHAKTVKEAGAAVTLDGDRAFGQVAAHEAMALGIEKAHQHGIAAVALHNSHHIGRIGYWAEQCAAAGFVSIHFVSVVGIPMVAPFHGRDSRFGTNPFCVVFPRKDNFPLLLDYATSAIAFGKTRVAWHKGVPVPPGCLIDVNGVPTTNPAVMQESPLGSLLTFAEHKGYALAAMCEILGGALSGGKTTHQETLQTSPDAILNCMTTIIINPELFGAPDCNAQTEAFAEWVKASPHDDDKPILLPGEWEVNTRRERQKQGIPLDAGSWQAICDAARQIGMPEETLQAFCQQLAS", "soluble on expression in E. coli": "soluble"}
{"sequence": "MGSDKIHHHHHHMIMSEKSIVQEARDIQLAMELINLGARLQMLESETQLSRGRLIRLYKELRGSPPPKGMLPFSTDWFMTWEQNIHASMFCNAWQFLLKTGLCSGVDAVIKAYRLYLEQCPQPPEGPLLALTRAWTLVRFVESGLLELSSCNCCGGNFITHAHQPVGSFACSLCQPPSRAVKRRKLSRDAADIIPQLLDEQIEQAV", "soluble on expression in E. coli": "not soluble"}
{"sequence": "GMATEKYHEILKKYFLSFETGDFSQVQFSCNLEFLSPISGNTLKGTEEVIPFLKGVTTRVAEVNIMSTTVEYPRASGVWQMRTTKGTLYTLHNFFRLDEEGIVYVWPMFDPKAVMENPDALIQWLTGKDY", "soluble on expression in E. coli": "soluble"}
{"sequence": "SLDSIELMAKIHASARWSEAALQILADETRRILKHEAGTRAGEDPEQLHQMRVGIRRLRSALRLFEPALKLPKPARRRSLSPLAAVLGSVRDLDVQMEMLRERYLGALPEGEQQALERLLAHLESLRTQARSAMLRYLDGLDYEQFKSAYTEFLESPKFRRGADESLYHLLPAFLREALSTLWAHPGWEEPDVETMHDLRIAVKRVRYNLEFFLGCYGKAVRSLHGELKRIQEELGIIHDCDVLLGQLHTEPLGPATPWQQPFSRLTALVRNERRNAVRRFRRLKTRLLSEDMRNSLAVWVSWPGTADD", "soluble on expression in E. coli": "soluble"}
{"sequence": "MGSDKIHHHHHHMTDLEHQVFTQVRAIIANEEQVIGRRGILIPLKKAIIADGDIRNVIDIVSSDPALAAHLLWRSNSAANASVSSKNRSLKDALVRLGQVNIYRYAFTFYLKERLDELPQPYKKLVYGYWALTESIATDAVDSLHHMEGVNINPDEVQTLALFSVFGEIIALTAFAYLNAESEQSFPLSIIKSLIDNQKQTLTLEAFESLGLDEELREEFMIAHNLRQTRNPDSPGLVLRRVLSMRNQLLNPL", "soluble on expression in E. coli": "not soluble"}
{"sequence": "MSLVIYMIGGSPCSGKSTIASLLARQYQLLHIKLDDLVDEMMSQASADSQPICLLRQDRNPEQIWMRNPKEMADEEWRFYEEIFPYVKSYLIKKDRPLLVEGAGLLPHLVKELEWPASSYLCLTPTADFQKKHYRQREWVSYVLEGTTNPEQAFENWMQRDILFAQMVRKEAMRLGYSSLMTDGSQSEKQTAEEIARLLKLYNINEIDIKGENEGHHHHHH", "soluble on expression in E. coli": "soluble"}
{"sequence": "LLPGAPDCRVYGWIYSSPTPGRAWVLLVHGLGGDHTFFEEPLGGYRVAYDLALRGFKVLAIDAAGHGESCIPGGESWRDKALTLEPGEFFLYHVYLSGVRAVEAALELGAEPG", "soluble on expression in E. coli": "not soluble"}
{"sequence": "GHMYAIAEDTLPARVLKELLLYRRRYPEHRQSASEADEIRRIEQVQLPRIAAFIEAGEPIEFVLPAFPAKSPNPGKVLDSRPDMAERLSLSFLNHLCQRIQLFYAPGAKITVCSDGRVFGDLVRIGDAHISAYQDALRLMIEEIGATHIGVFNLEDVRAFEAQRDNHEQLRQLLIGGYAEPLESIRETLLASEEGLLLYRAITRFLYEDGLTPDYQGSKTALQRDAKERAYGVIQRSWAWGALLADQFPRAIRLSIHPQPADSLKFGIHMMPTRDDWLTPWHGVAVNTEDRFVLMKRSEVLELGGELVQINGQPSHYRLPARAARRAAVA", "soluble on expression in E. coli": "soluble"}
{"sequence": "MTIDCHEDRRVLLVPHTGRPQNVASAALAAELLDDSGVGVRVLVPAEDTTVATHPVLGQFERVSHSPQATQSVDLVLVLGGDGTFLRAADLAHGADLPVLGINLGHVGFLAEWEKDSLDEAVRRVTKGSFRIEERMTLDVSVYDSNGTAIGRGWALNEVSIENSNRSGVLDATLEIDSRPVSSFGCDGIIVSTPTGSTAYAFSAGGPVLWPELDAILVVPNNAHALFTKPLVVSPRSSVAVESHPSAFPATAVMDGFRSISVPPGARVEVKRGSRSIKWVRLDDIPFTDRLVTKLRLPVEGWRGPKNMIPQINPHSALEHHHHHH", "soluble on expression in E. coli": "soluble"}
